For two substances, cAMP accumulation in transfected COS7 cells, Netrin 1 given before SST-14 and decrease in cAMP accumulation in transfected COS7 cells results are on record in patent US20060025335A1.

In experiment [1] the target is Myc-tagged UNC5H2 (pMyc-UNC5H2) (human) (UniProt Q8IZJ1). The experiment is described as follows: cell-based or functional assay.
In experiment [2] the target is somatostatin receptor 3 (pCMV6c-SSTR3). Briefly: cell-based or functional assay.

Sequence of UniProt Q8IZJ1 (Q8IZJ1 other isoform, or with tags, fused parts or gaps): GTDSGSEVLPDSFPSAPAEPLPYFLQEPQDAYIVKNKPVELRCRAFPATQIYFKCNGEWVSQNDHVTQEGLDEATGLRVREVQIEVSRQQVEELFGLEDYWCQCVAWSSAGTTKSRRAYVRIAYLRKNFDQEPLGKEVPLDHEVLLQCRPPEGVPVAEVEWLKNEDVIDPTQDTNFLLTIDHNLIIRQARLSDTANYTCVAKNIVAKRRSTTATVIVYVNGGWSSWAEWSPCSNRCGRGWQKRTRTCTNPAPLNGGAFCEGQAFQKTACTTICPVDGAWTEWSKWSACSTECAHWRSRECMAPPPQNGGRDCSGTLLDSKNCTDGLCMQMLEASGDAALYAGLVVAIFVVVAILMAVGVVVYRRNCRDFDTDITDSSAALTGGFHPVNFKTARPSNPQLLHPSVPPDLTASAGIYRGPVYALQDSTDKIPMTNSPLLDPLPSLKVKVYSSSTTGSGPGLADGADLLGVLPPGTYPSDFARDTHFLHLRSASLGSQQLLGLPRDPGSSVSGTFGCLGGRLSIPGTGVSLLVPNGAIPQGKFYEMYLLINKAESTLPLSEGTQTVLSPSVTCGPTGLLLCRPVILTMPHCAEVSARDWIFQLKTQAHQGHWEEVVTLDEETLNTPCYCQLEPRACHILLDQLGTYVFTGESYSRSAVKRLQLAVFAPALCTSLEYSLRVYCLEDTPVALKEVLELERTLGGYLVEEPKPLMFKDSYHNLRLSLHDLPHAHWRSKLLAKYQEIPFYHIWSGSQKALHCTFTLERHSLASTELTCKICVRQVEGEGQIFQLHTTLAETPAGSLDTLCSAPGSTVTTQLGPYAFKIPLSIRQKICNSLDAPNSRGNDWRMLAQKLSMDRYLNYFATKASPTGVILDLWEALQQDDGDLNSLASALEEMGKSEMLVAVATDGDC

Netrin 1 (R&D Systems) (ligand) returned a cAMP accumulation in transfected COS7 cells, Netrin 1 given before SST-14 in experiment [1] of 41%.

Consider “somatostatin-14 (from UniProt P61278 89-116) (peptide)”, for which, in experiment [2], the decrease in cAMP accumulation in transfected COS7 cells is 32%.
